Source: paper PMC8141814 (Frontiers in Molecular Biosciences, 2021)

Experiments:
SEC = biological target: the molecule itself; assay: SEC
[1] = biological target: the molecule itself; assay: SEC; SEC profile of cell-free synthesized ORF14 in DDM detergent micelles

Protein | stoichiometry N (SEC) | stoichiometry N [1]
nsp9, full-length (natural protein, also called fl nsp9) NNELSPVALRQMSCAAGTTQTACTDDNALAYYNTTKGGRFVLALLSDLQDLKWARFPKSDGTGTIYTELEPPCRFVTDTPKGPKVKYLYFIKGLNNLNRGMVLGSLAATVRLQ | 2 | 
ORF14 (ORF9c) protein, full-length (natural protein, also called OFR14) MLQSCYNFLKEQHCQKASTQKGAEAAVKPLLVPHHVVATVQEIQLQAAVGELLLLEWLAMAVMLLLLCCCLTD |  | ~9
